Data reported in EP1783227A1.
Several values for one entry are separate records, joined by “and”; a condition that tells them apart may be missing. Equal entries are not always repeated.

Biological target: human CCR2 (endogenous, on THP-1 cells, THP-1 cell membranes, PBMC and whole blood leukocytes) (human) (UniProt P41597)
Assay: competition with 0.1 nM [125I]MCP-1 on fresh PBMC (500,000 cells), filtration and scintillation counting

UniProt P41597, sequence (P41597 whole entry): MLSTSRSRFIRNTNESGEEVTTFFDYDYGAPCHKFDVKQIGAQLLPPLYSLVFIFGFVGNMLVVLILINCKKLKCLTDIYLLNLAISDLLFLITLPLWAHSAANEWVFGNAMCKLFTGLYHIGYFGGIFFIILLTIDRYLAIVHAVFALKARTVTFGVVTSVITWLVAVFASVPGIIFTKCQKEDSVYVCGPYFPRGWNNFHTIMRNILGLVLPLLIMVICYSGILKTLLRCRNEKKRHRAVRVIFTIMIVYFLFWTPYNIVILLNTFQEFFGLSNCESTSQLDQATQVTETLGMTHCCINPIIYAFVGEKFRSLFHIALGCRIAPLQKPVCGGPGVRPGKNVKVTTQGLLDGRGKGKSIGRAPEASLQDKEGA

IC50: 0.2 nM and 0.04 µg/mL
Substance: murine monoclonal antibody LS132.1D9
